Reference: patent publication US20220332804A1 (CSL INNOVATION, published 2022)

What was measured:
Test in all cases: SPR, mAb captured, C2 mutant analyte;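 note: Anti-C2 mAbs captured on goat anti-human IgG Biacore CM5 chips, alanine or serine C2 surface mutants flowed over at 37 °C, double-referenced sensorgrams fitted to a 1:1 binding model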
human C2 E476A = target: T1, human C2 E476A (human, UniProt P06681 21-752)
T1 sequence: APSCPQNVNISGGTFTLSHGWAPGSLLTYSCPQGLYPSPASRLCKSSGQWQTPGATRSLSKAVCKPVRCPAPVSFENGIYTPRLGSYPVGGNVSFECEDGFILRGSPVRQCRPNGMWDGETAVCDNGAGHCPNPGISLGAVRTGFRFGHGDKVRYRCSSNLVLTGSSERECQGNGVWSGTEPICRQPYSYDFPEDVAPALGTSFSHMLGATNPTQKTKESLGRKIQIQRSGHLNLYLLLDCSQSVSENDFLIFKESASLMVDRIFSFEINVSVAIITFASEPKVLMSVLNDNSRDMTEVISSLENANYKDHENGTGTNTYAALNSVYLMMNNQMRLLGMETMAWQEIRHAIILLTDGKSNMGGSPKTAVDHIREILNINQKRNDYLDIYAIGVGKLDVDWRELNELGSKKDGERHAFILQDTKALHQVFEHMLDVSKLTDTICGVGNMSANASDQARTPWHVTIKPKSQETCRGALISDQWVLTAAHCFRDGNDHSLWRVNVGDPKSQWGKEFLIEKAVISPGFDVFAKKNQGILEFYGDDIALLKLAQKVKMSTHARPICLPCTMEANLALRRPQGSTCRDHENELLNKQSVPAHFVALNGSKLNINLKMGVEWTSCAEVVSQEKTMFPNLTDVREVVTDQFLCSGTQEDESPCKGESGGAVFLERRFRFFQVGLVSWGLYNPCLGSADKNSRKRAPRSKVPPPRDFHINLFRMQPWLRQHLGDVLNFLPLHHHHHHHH

human C2 W420A = target: T2, human C2 W420A (human, UniProt P06681 21-752)
T2 sequence: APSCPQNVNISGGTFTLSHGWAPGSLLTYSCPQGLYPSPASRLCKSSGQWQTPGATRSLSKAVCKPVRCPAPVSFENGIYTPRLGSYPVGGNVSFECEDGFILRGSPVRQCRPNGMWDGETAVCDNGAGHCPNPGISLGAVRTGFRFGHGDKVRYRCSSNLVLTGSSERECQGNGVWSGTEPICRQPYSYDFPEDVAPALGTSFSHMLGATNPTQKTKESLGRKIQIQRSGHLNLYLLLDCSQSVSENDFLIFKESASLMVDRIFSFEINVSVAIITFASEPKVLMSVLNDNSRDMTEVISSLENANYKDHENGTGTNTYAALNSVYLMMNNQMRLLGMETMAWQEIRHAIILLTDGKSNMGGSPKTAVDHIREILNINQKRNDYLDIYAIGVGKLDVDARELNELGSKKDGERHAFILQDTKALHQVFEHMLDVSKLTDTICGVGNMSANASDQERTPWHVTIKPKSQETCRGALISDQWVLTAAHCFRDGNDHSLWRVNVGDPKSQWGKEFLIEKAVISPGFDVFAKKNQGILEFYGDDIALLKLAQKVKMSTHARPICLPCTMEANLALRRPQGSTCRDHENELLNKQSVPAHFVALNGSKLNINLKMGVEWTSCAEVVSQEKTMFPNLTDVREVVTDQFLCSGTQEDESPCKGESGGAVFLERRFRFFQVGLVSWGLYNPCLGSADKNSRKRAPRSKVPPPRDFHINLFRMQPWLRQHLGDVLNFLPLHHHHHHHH

human C2 N467A = target: T3, human C2 N467A (human, UniProt P06681 21-752)
T3 sequence: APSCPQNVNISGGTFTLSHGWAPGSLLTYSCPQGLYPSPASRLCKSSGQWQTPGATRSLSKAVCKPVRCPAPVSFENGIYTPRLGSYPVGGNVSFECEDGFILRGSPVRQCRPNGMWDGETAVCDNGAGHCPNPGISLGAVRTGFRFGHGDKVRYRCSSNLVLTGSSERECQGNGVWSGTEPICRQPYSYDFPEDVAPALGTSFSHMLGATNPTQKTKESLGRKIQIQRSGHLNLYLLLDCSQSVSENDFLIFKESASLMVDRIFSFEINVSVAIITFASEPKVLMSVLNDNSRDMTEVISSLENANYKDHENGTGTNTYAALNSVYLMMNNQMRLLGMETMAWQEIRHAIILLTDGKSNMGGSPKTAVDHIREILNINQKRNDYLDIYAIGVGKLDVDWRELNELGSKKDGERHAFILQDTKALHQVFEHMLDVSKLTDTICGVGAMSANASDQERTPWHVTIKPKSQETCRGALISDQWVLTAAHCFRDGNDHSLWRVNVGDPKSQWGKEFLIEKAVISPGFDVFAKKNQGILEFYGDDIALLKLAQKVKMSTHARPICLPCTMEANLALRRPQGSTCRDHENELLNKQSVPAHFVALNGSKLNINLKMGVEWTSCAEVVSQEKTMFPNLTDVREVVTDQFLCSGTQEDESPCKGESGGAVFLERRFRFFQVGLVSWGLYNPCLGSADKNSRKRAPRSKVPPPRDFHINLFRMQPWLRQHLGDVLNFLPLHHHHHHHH

human C2 N403A = target: T4, human C2 N403A (human, UniProt P06681 21-752)
T4 sequence: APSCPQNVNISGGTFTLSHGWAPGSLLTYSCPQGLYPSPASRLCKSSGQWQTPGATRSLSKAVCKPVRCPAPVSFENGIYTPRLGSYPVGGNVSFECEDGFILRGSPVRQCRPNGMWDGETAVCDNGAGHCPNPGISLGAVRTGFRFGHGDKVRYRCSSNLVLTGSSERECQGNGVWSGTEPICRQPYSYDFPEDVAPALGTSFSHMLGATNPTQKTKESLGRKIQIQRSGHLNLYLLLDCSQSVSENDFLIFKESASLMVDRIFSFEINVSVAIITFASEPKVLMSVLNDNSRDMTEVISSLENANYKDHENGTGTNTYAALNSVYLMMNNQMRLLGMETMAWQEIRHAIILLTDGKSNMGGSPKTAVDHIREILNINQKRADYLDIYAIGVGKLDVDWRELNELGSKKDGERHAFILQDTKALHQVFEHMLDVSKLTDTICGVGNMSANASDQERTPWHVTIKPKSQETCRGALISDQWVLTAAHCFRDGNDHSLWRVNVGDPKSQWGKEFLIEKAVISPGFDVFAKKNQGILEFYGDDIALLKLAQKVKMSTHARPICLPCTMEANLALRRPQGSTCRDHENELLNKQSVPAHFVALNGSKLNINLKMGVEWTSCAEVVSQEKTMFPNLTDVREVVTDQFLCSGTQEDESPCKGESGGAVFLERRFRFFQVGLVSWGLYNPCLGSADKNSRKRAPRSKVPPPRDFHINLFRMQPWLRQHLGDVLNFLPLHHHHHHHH

B1: RF16-214 (antibody, V domains shown)
VH: EVQLLESGGGLVQPGGSLRLSCAASGFTFSWYQMMWVRQAPGKGLEWVSRIYPSGGGTAYADSVKGRFTISRDNSKNTLYLQMNSLRAEDTAVYYCARDAGYGDNWGQGTLVTVSS
VL: QSALTQPPSVSVSPGQTASITCSGDKLGEKYASWYQQKAGQSPVMVIYQDRKRPSGIPERFSGSNSGNTATLTISGTQAMDEADYYCQAWDTRAVVFGGGTKLTVLG
- Kd (human C2 E476A): 58.6 nM
- Kd (human C2 W420A): 34.9 nM
- Kd (human C2 N467A): 77.2 nM
- Kd (human C2 N403A): 29.6 nM
